In US20140087995A1 (published 2014):
Numbered stars: 1 amine (or outer) side, 2 acyl side, 3 side chain; on linkers, the order of the positions; unused ones are H or OH. Bridge positions count the residues as written; N and C are the ends. * marks the point of attachment. C20 diacid = O=C(O)CCCCCCCCCCCCCCCCCCC(=O)*; γGlu = O=C(O)[C@H](CCC(=O)[*:2])N[*:1]

T1: human calcitonin receptor (human, UniProt P30988 25-474)
T1 sequence (looked up): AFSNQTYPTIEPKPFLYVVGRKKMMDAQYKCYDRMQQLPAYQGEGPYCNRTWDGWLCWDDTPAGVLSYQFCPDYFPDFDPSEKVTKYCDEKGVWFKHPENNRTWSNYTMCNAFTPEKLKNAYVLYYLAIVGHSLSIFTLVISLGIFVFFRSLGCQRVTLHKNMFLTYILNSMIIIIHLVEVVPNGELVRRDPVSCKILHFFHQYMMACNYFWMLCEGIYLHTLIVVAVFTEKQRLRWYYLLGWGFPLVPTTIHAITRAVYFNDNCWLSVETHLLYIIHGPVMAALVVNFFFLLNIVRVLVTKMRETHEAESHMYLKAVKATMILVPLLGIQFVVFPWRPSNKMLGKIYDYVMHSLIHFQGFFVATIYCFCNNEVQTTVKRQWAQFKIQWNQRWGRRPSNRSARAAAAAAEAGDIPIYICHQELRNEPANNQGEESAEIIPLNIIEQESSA

T2: human amylin receptor (amylin 3(a) receptor: human calcitonin receptor with RAMP-3) (human, UniProt P30988 25-474; O60896 24-148, limits assumed)
T2 sequence (looked up) 1: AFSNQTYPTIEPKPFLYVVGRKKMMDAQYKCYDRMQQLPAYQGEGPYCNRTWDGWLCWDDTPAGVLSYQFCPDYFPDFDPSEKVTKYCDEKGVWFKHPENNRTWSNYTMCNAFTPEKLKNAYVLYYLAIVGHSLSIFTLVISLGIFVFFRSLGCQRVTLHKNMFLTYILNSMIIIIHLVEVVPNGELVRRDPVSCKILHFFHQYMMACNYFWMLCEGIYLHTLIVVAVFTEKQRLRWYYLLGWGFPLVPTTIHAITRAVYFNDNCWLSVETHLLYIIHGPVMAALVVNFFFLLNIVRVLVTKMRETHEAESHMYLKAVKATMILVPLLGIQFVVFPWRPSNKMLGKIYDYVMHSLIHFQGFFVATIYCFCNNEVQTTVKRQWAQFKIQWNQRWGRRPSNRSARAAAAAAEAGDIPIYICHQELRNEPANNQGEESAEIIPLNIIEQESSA
T2 sequence (looked up) 2: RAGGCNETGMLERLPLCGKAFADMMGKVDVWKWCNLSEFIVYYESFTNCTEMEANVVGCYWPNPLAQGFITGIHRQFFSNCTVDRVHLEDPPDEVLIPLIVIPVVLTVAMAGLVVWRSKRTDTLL

T3: human calcitonin receptor (human, UniProt P30988 25-474)
T3 construct: whole, on cells; Assayed as cell membranes of BHK tk'ts 13 cells stably transfected with the human calcitonin receptor (Assay VII); also called hCTR; hCT
T3 sequence (looked up): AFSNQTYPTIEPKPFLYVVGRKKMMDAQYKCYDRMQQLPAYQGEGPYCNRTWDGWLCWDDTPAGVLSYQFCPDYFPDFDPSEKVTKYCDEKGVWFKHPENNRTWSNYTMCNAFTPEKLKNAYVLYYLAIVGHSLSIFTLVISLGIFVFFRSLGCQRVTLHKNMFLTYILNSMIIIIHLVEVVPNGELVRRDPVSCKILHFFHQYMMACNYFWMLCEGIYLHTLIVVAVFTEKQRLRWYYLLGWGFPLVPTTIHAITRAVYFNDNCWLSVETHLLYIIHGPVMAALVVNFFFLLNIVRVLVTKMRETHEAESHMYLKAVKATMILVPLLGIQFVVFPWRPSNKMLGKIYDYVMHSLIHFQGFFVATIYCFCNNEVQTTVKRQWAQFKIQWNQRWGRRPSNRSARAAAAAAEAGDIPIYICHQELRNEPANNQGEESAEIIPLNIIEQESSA

T4: human amylin receptor (amylin 3(a) receptor: human calcitonin receptor co-expressed with RAMP-3) (human, UniProt P30988 25-474; O60896 24-148, limits assumed)
T4 construct: whole, on cells; Assayed as cell membranes of BHK570 Amylin 3(a)/CRE-luc cells (Assay V); also called hAmylin-R; hAmylinR
T4 sequence (looked up) 1: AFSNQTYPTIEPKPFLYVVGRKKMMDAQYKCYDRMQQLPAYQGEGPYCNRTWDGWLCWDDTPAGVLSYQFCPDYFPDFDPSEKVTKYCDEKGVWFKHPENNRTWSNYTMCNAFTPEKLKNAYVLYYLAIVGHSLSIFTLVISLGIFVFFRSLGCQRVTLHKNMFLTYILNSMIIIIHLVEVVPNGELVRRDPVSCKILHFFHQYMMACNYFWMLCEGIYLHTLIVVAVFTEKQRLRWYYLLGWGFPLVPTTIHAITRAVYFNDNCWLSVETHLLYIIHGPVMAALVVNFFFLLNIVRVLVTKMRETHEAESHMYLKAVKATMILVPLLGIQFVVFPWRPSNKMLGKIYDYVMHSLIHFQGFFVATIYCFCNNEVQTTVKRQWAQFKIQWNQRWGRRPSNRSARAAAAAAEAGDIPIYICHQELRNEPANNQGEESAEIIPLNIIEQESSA
T4 sequence (looked up) 2: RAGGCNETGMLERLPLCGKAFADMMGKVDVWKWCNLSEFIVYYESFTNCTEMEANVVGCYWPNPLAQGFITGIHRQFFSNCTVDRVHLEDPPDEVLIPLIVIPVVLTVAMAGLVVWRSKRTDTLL


Assays:
[1] = target: T1, human calcitonin receptor; test: cell-based or functional assay
[2] = target: T2, human amylin receptor (amylin 3(a) …); test: cell-based or functional assay
[3] = target: T2, human amylin receptor (amylin 3(a) …); test: SPA competition binding on membranes of BHK cells with human calcitonin receptor + RAMP-3; displacement of 125I-rat amylin (Assay V)
Method in brief: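 Cell membranes were prepared by homogenisation in Na-HEPES/EDTA buffer, pH 7.4, and stored at −80° C. They were then coupled to SPA beads at 35 ng/μL final and exposed to compounds in assay buffer containing CaCl2, MgCl₂, OA and Tween20. After 120 min at 25° C, plates were counted and IC₅₀ derived.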

[4] = target: T3, human calcitonin receptor; test: IC50 at hCTR divided by IC50 at hAmylin-R (SPA competition assays V and VII)
Method in brief: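 IC₅₀ values were derived by one-site competition analysis of SPA counts. Cell membranes (35 ng/μL) with SPA beads were incubated with test compounds for 120 min at 25° C in Hepes buffer, pH 7.4, containing CaCl2, MgCl₂, OA and Tween20.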

[5] = target: T4, human amylin receptor (amylin 3(a) …); test: SPA competition vs 125I-rat amylin, membranes of BHK cells with human amylin 3(a) receptor (Assay V)
Method: The binding assay was performed using scintillation proximity assay (SPA) beads (RPNQ0001) from PerkinElmer and cell membranes from the Amylin 3(a)/CRE-luc cells (as described in Assay (II)) were used. Membranes were prepared in the following way; the cells were rinsed with PBS and incubated with Versene for approximately 5 min before harvesting. The cells were flushed with PBS and the cell-suspension was centrifuged for 5 min at 1000 rpm. Cells were homogenized (ultrathurrax) in a buffer containing 20 mM Na-HEPES and 10 mM EDTA (pH 7.4) and centrifuged at 20.000 rpm for 15 min. The resulting pellet was resuspended, homogenized and centrifuged (20.000 rpm, 15 min) in a buffer containing 20 mM Na-HEPES and 0.1 mM EDTA (pH 7.4, buffer 2). The resulting pellet was resuspended in buffer 2 and protein concentration was measured (BCA protein Assay, Pierce). The homogenate was kept cold during the whole procedure. The membranes were kept at −80° C. until use. The assay was performed in a 384 well Optiplate (PerkinElmer) in a total volume of 40 ul. Membranes were mixed with SPA beads. Final concentration of membranes 35 ng/μL final and SPA beads was 0.05 mg/well. […] Samples were analyzed on TopCounter™ (Packard). The IC₅₀ was calculated using (one site binding competition analysis) GraphPad Prism5 as a measure of receptor affinity.

[6] = target: T3, human calcitonin receptor; test: SPA competition vs 125I-calcitonin, membranes of BHK cells with human calcitonin receptor (Assay VII)
Method in brief: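 BHK hCTR membranes 35 ng/μL + SPA beads 0.05 mg/well; buffer 50 mM Hepes pH 7.4, 1 mM CaCl2, 5 mM MgCl₂, 0.1% OA, 0.02% Tween20. 120 min, 25° C., shaking. Scintillation count; IC50 by one-site binding competition.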

Row | Ratio hCT/hAmylin funct. [1] [ratio] | hCTR funct. EC50 (pM) [1] [pM] | hAmylin-R funct. EC50 (pM) [2] [pM] | IC50 [3] [pM] | Ratio hCT/hAmylin binding [4] | IC50 [5] [pM] | IC50 [6] [pM] | Binder
1 | 6.1 | 2220 | 363 | 894 | – | – | – | {C20 diacid-γGlu}-KCNTATCATQRLAEFLRHSSPNFGAIPSSTNVGSRTY-NH2 (disulfide 2-7; SMILES CC[C@H](C)[C@H](NC(=O)[C@H](C)NC(=O)CNC(=O)[C@H](Cc1ccccc1)NC(=O)[C@H](CC(N)=O)NC(=O)[C@@H]1CCCN1C(=O)[C@H](CO)NC(=O)[C@H](CO)NC(=O)[C@H](Cc1c[nH]cn1)NC(=O)[C@H](CCCNC(=N)N)NC(=O)[C@H](CC(C)C)NC(=O)[C@H](Cc1ccccc1)NC(=O)[C@H](CCC(=O)O)NC(=O)[C@H](C)NC(=O)[C@H](CC(C)C)NC(=O)[C@H](CCCNC(=N)N)NC(=O)[C@H](CCC(N)=O)NC(=O)[C@@H](NC(=O)[C@H](C)NC(=O)[C@@H]1CSSC[C@H](NC(=O)[C@H](CCCCN)NC(=O)CC[C@H](NC(=O)CCCCCCCCCCCCCCCCCCC(=O)O)C(=O)O)C(=O)N[C@@H](CC(N)=O)C(=O)N[C@@H]([C@@H](C)O)C(=O)N[C@@H](C)C(=O)N[C@@H]([C@@H](C)O)C(=O)N1)[C@@H](C)O)C(=O)N1CCC[C@H]1C(=O)N[C@@H](CO)C(=O)N[C@@H](CO)C(=O)N[C@H](C(=O)N[C@@H](CC(N)=O)C(=O)N[C@H](C(=O)NCC(=O)N[C@@H](CO)C(=O)N[C@@H](CCCNC(=N)N)C(=O)N[C@H](C(=O)N[C@@H](Cc1ccc(O)cc1)C(N)=O)[C@@H](C)O)C(C)C)[C@@H](C)O, also called compound 16)
2 | – | – | – | – | 100 | 348 | 35000 | {C20 diacid-γGlu}-GRCNTATCATQRLAHFLRHSSPNFGAIPSSTNVGSNTY-NH2 (disulfide 3-8; SMILES CC[C@H](C)[C@H](NC(=O)[C@H](C)NC(=O)CNC(=O)[C@H](Cc1ccccc1)NC(=O)[C@H](CC(N)=O)NC(=O)[C@@H]1CCCN1C(=O)[C@H](CO)NC(=O)[C@H](CO)NC(=O)[C@H](Cc1c[nH]cn1)NC(=O)[C@H](CCCNC(=N)N)NC(=O)[C@H](CC(C)C)NC(=O)[C@H](Cc1ccccc1)NC(=O)[C@H](Cc1c[nH]cn1)NC(=O)[C@H](C)NC(=O)[C@H](CC(C)C)NC(=O)[C@H](CCCNC(=N)N)NC(=O)[C@H](CCC(N)=O)NC(=O)[C@@H](NC(=O)[C@H](C)NC(=O)[C@@H]1CSSC[C@H](NC(=O)[C@H](CCCNC(=N)N)NC(=O)CNC(=O)CC[C@H](NC(=O)CCCCCCCCCCCCCCCCCCC(=O)O)C(=O)O)C(=O)N[C@@H](CC(N)=O)C(=O)N[C@@H]([C@@H](C)O)C(=O)N[C@@H](C)C(=O)N[C@@H]([C@@H](C)O)C(=O)N1)[C@@H](C)O)C(=O)N1CCC[C@H]1C(=O)N[C@@H](CO)C(=O)N[C@@H](CO)C(=O)N[C@H](C(=O)N[C@@H](CC(N)=O)C(=O)N[C@H](C(=O)NCC(=O)N[C@@H](CO)C(=O)N[C@@H](CC(N)=O)C(=O)N[C@H](C(=O)N[C@@H](Cc1ccc(O)cc1)C(N)=O)[C@@H](C)O)C(C)C)[C@@H](C)O, also called compound 99)
